The series in a line: self-splicing fitness, log relative to wild type (ln ratio); higher = more splicing; Tetrahymena group I intron in knt gene, E. coli kanamycin selection, DiMSum; sequences stand for … in CUCUCU…GGAGGGAAAAGUUAUCAGGCAUGCACCUGGUAGCUAGUCUUUAAACCAAUAGAUUGCAUCGGUUUAAAAGGCAAGACCGUCAAAUUGCGGGAAAGGGGUCAACAGCCGUUCAGUACCAAGUCUCAGGGGAAACUUUGAGAUGGCCUUGCAAAGGGUAUGGUAAUAAGCUGACGGACAUGGUCCUAACCACGCAGCCAAGUCCUAAGUCAACAGAUCUUCUGUUGAUAUGGAUGCAGUUCACAGACUAAAUGUCGGUCGGGGAAGAUGUAUUCUUCUCAUAAGAUAUAGUCGGACCUCUCCUUAAUGGGAGCUAGCGGAUGAAGUGAUGCAACACUGGAGCCGCUGGGAACUAAUUUGUAUGCGAAAGUAUAUUGAUUAGUUUUGGAGUACUCGUGGUCG
In short, it runs like this:
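Pooled colonies went to amplicon sequencing on an Illumina HiSeq 2500 after six replicate transformations. The plates were LB agar with 100 μg/mL carbenicillin, 50 μM IPTG and 0.2% rhamnose, with or without 25 μg/mL kanamycin, incubated overnight at 37°C or 30°C. The E. coli BL21(DE3) library had all eight P1ex-region intron nucleotides randomised, the intron placed in the knt kanamycin-resistance gene on pET-22b(+). DiMSum fitness is the error-weighted combination of replicate fold changes, kanamycin against none, normalised to wild type.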

± gives the uncertainty stated by the source.

For UUAGAGCAAUAUUACGCCUU, the “self-splicing fitness (ln)” value was -2.34 ± 0.13 (30 °C) and -1.08 ± 0.16 (37 °C).
For UGUAAGCAAUAUUACGCUCU the same measures were 0.793 ± 0.47 and -0.974 ± 0.45.
With UCCUAGCAAUAUUACGUACC, the “self-splicing fitness (ln)” value (30 °C) is -2.36 ± 0.47.
Take AUUCAGCAAUAUUACGGUAG: the “self-splicing fitness (ln)” value (30 °C) was -3.49 ± 0.17 and the “self-splicing fitness (ln)” value (37 °C) is -2.87 ± 0.2.
CGGUAGCAAUAUUACGACUA: the “self-splicing fitness (ln)” value is -0.298 ± 0.14 (30 °C) and 0.0316 ± 0.16 (37 °C).
For GUUAAGCAAUAUUACGACCA the same measures were -0.467 ± 0.21 and -1.67 ± 0.17.
For CCCCAGCAAUAUUACGUCAA the same measures were -3.29 ± 0.12 and -3 ± 0.16.
Turning to AGUGAGCAAUAUUACGUGUG, the “self-splicing fitness (ln)” value (30 °C) was -2.69 ± 0.21.
For the sequence CGUAAGCAAUAUUACGAAAG, the “self-splicing fitness (ln)” value is -1.98 ± 0.13 (30 °C) and -0.821 ± 0.12 (37 °C).
Consider GAUCAGCAAUAUUACGAUGG, for which the “self-splicing fitness (ln)” value is -1.22 ± 0.096 (30 °C) and 0.121 ± 0.14 (37 °C).
For GCGGAGCAAUAUUACGAUCA the same measures were -2.43 ± 0.41 and -1.56 ± 0.32.
For GCGGAGCAAUAUUACGCGUC the same measures were -3.26 ± 0.18 and -3.2 ± 0.25.
Regarding GGAGAGCAAUAUUACGUUGA, the “self-splicing fitness (ln)” value (37 °C) is -1.97 ± 0.42.
For AGGCAGCAAUAUUACGAAGG, the “self-splicing fitness (ln)” value was -1.9 ± 0.22 (30 °C) and -1.56 ± 0.27 (37 °C).
Take GAAGAGCAAUAUUACGGUCA: the “self-splicing fitness (ln)” value reads like this: (30 °C) -2.72 ± 0.34; (37 °C) -2.05 ± 0.23.
On to AACGAGCAAUAUUACGUAAU, for which the “self-splicing fitness (ln)” value was -3.78 ± 0.15 (30 °C) and -1.75 ± 0.12 (37 °C).
Turning to GUUUAGCAAUAUUACGUUGC, the “self-splicing fitness (ln)” value reads like this: (30 °C) -3.73 ± 0.27; (37 °C) -2.59 ± 0.34.
For GAUUAGCAAUAUUACGCAAG the same measures were -2.11 ± 0.14 and -1.3 ± 0.13.
For GUCUAGCAAUAUUACGGGGA the same measures were -2.08 ± 0.25 and -3.16 ± 0.32.
For UGUUAGCAAUAUUACGUCAG, the “self-splicing fitness (ln)” value (30 °C) was -1.61 ± 0.15 and the “self-splicing fitness (ln)” value (37 °C) was -0.486 ± 0.2.
ACGUAGCAAUAUUACGGGGC: the “self-splicing fitness (ln)” value (30 °C) was -4.11 ± 0.14 and the “self-splicing fitness (ln)” value (37 °C) is -2.73 ± 0.12.
For AGGUAGCAAUAUUACGUCCA the same measures were -0.144 ± 0.015 and -0.214 ± 0.035.
CUUUAGCAAUAUUACGACGA: for the setting “37 °C”, the “self-splicing fitness (ln)” value is -1.82 ± 0.24.
On to CGGAAGCAAUAUUACGCCGC, for which the “self-splicing fitness (ln)” value runs as follows: (30 °C) -2.96 ± 0.28; (37 °C) -2.51 ± 0.35.
For AUAUAGCAAUAUUACGACCA the same measures were -1.05 ± 0.32 and 0.391 ± 0.26.
For AUGCAGCAAUAUUACGCUCU the same measures were -1.34 ± 0.084 and 0.22 ± 0.084.
For CUUAAGCAAUAUUACGUGCU the same measures were -2.16 ± 0.24 and -2.1 ± 0.18.
For the sequence UGAUAGCAAUAUUACGGAAU, the “self-splicing fitness (ln)” value (30 °C) was -2.96 ± 0.18 and the “self-splicing fitness (ln)” value (37 °C) was -2 ± 0.23.
For the sequence UGCCAGCAAUAUUACGAGCU, the “self-splicing fitness (ln)” value is, setting by setting: (30 °C) -1.17 ± 0.075; (37 °C) -0.631 ± 0.098.
For GGUGAGCAAUAUUACGAAUG the same measures were -3.14 ± 0.29 and -2.36 ± 0.5.
For ACGAAGCAAUAUUACGCGUU the same measures were -4.06 ± 0.33 and -2 ± 0.21.
For CGACAGCAAUAUUACGAAGA the same measures were -2.29 ± 0.17 and -2.09 ± 0.16.
In the case of UGUUAGCAAUAUUACGACAA, the “self-splicing fitness (ln)” value runs as follows: (30 °C) -0.407 ± 0.18; (37 °C) 0.123 ± 0.16.
For CUCGAGCAAUAUUACGCUGA the same measures were -2.4 ± 0.43 and -0.491 ± 0.3.
For UAGUAGCAAUAUUACGGCGU the same measures were -2.15 ± 0.17 and -1.2 ± 0.17.
As for ACAUAGCAAUAUUACGGGCA, the “self-splicing fitness (ln)” value by setting is: (30 °C) -1.57 ± 0.11; (37 °C) -1.76 ± 0.098.
For AAGGAGCAAUAUUACGAAAU the same measures were -2.26 ± 0.14 and -3 ± 0.29.
For GGACAGCAAUAUUACGAUAG the same measures were -3.66 ± 0.25 and -2.13 ± 0.23.
For AGAAAGCAAUAUUACGAUAA the same measures were -1.21 ± 0.054 and -0.539 ± 0.073.
As to AAAGAGCAAUAUUACGGUUA, the “self-splicing fitness (ln)” value (30 °C) is -2.49 ± 0.21 and the “self-splicing fitness (ln)” value (37 °C) is -2.06 ± 0.18.
For CACAAGCAAUAUUACGGCGC the same measures were -3.59 ± 0.17 and -1.07 ± 0.12.
For the sequence UGGUAGCAAUAUUACGCGCU, the “self-splicing fitness (ln)” value (30 °C) was -2.58 ± 0.18 and the “self-splicing fitness (ln)” value (37 °C) was -1.31 ± 0.18.
For GCUGAGCAAUAUUACGUGGG the same measures were -2.02 ± 0.16 and -2.36 ± 0.26.
For CUGCAGCAAUAUUACGCAAU the same measures were -3.55 ± 0.25 and -2.77 ± 0.21.
For UUGCAGCAAUAUUACGCUUC, the “self-splicing fitness (ln)” value (30 °C) is -3.76 ± 0.35 and the “self-splicing fitness (ln)” value (37 °C) is -2.76 ± 0.25.
For the sequence AGUAAGCAAUAUUACGACAG, the “self-splicing fitness (ln)” value is -2.95 ± 0.2 (30 °C) and -1.94 ± 0.22 (37 °C).
For CACGAGCAAUAUUACGAGAG the same measures were -3.14 ± 0.15 and -2.18 ± 0.18.
For UAGCAGCAAUAUUACGGAAG the same measures were -3.04 ± 0.16 and -1.14 ± 0.15.
For AACUAGCAAUAUUACGAGGC the same measures were -3.35 ± 0.2 and -2.62 ± 0.35.
CUCAAGCAAUAUUACGGGCA: the “self-splicing fitness (ln)” value was -2.74 ± 0.15 (30 °C) and -2.48 ± 0.16 (37 °C).
For UUUGAGCAAUAUUACGCUUC the same measures were -2.18 ± 0.31 and -2.53 ± 0.44.
For UGGUAGCAAUAUUACGCUUA the same measures were -0.955 ± 0.18 and -0.553 ± 0.22.
Consider AAAGAGCAAUAUUACGUGAA, for which the “self-splicing fitness (ln)” value is -3.27 ± 0.14 (30 °C) and -2.44 ± 0.16 (37 °C).
As to AAUGAGCAAUAUUACGAGGA, the “self-splicing fitness (ln)” value is, setting by setting: (30 °C) -2.86 ± 0.36; (37 °C) -2.08 ± 0.36.
For GUUAAGCAAUAUUACGACAG the same measures were -2.85 ± 0.28 and -1.82 ± 0.33.
For GGUAAGCAAUAUUACGAAUC the same measures were -0.515 ± 0.13 and -0.339 ± 0.16.
With UAUCAGCAAUAUUACGGAUG, the “self-splicing fitness (ln)” value is -1.11 ± 0.084 (30 °C) and 0.0808 ± 0.091 (37 °C).
For CAAUAGCAAUAUUACGCACU the same measures were -2.14 ± 0.12 and -1.82 ± 0.17.
For GAACAGCAAUAUUACGGUAC the same measures were -1.37 ± 0.064 and -0.573 ± 0.072.
For AGAAAGCAAUAUUACGGCCG the same measures were -0.348 ± 0.11 and -0.28 ± 0.14.
With UUAAAGCAAUAUUACGUAGG, the “self-splicing fitness (ln)” value (30 °C) was -1.29 ± 0.11 and the “self-splicing fitness (ln)” value (37 °C) was determined as 0.067 ± 0.13.
For UUUCAGCAAUAUUACGCGCA the same measures were -0.226 ± 0.11 and 0.569 ± 0.12.
For GGAGAGCAAUAUUACGUAGA the same measures were -4.01 ± 0.2 and -2.05 ± 0.15.
For CCAGAGCAAUAUUACGAAAG the same measures were -2.45 ± 0.2 and -1.47 ± 0.17.
With CAAGAGCAAUAUUACGUAAC, the “self-splicing fitness (ln)” value (37 °C) is -2.94 ± 0.43.
As for UGGAAGCAAUAUUACGCAAU, the “self-splicing fitness (ln)” value is, setting by setting: (30 °C) -1.81 ± 0.24; (37 °C) -0.664 ± 0.24.
For AGGGAGCAAUAUUACGUUUG the same measures were -3.56 ± 0.39 and -2.66 ± 0.35.
For GUCGAGCAAUAUUACGUACU the same measures were -2.83 ± 0.29 and -0.966 ± 0.21.
As for AAGGAGCAAUAUUACGCAUC, the “self-splicing fitness (ln)” value is, setting by setting: (30 °C) -5.17 ± 0.36; (37 °C) -2.52 ± 0.19.
For UUCCAGCAAUAUUACGUACC the same measures were -2.05 ± 0.24 and -1.71 ± 0.31.
For GGCAAGCAAUAUUACGCCAU the same measures were -2.4 ± 0.39 and -1.39 ± 0.29.
For ACGCAGCAAUAUUACGAGCU the same measures were -2.76 ± 0.12 and -1.18 ± 0.12.
On to CCACAGCAAUAUUACGGAUA, for which the “self-splicing fitness (ln)” value was -2.27 ± 0.12 (30 °C) and -2.68 ± 0.18 (37 °C).
For the sequence GUUGAGCAAUAUUACGAAGA, the “self-splicing fitness (ln)” value (37 °C) is -2.71 ± 0.48.
As to UCCUAGCAAUAUUACGUUAC, the “self-splicing fitness (ln)” value (30 °C) was -3.48 ± 0.25 and the “self-splicing fitness (ln)” value (37 °C) was -2.09 ± 0.25.
For GAGCAGCAAUAUUACGAUUC the same measures were -0.868 ± 0.093 and -0.29 ± 0.14.
With ACUGAGCAAUAUUACGUCCG, the “self-splicing fitness (ln)” value reads like this: (30 °C) -2.79 ± 0.17; (37 °C) -1.58 ± 0.17.

The values are drawn from the supplement of paper PMC7877785.
